Data published in publication PMC3976055 (2014).

T1: Rpt5 C-domain (UniProt P33297 350-434)
T1 chain: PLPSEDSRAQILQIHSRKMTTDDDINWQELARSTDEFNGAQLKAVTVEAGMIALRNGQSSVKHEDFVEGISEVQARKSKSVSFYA


Legend:
[1] = molecular target: T1, Rpt5 C-domain; experiment: BLI
[2] = molecular target: T1, Rpt5 C-domain; experiment: BLI

| Kd [1] | koff [2] | Binder |
| --- | --- | --- |
| 3.4 µM | 0.26 s⁻¹ | Nas2ND (domain or fragment) NDLNHLLQRSHVLLNQHFDNMNVKSNQDARRNNDDQAIQYTIPFAFISEVVPGSPSDKADIKVDDKLISIGNVHAANHSKLQNIQMVVMKNEDRPLPVLLLREGQILKTSLTPSRNWNGRGLLGCRIQEL |
| 1.4 µM | 0.013 s⁻¹ | Nas2 (natural protein) MEEEELSKLLANVKIDPSLTSRISQIDSFKLSELMVLKTDIETQLEAYFSVLEQQGIGMDSALVTPDGYPRSDVDVLQVTMIRKNVNMLKNDLNHLLQRSHVLLNQHFDNMNVKSNQDARRNNDDQAIQYTIPFAFISEVVPGSPSDKADIKVDDKLISIGNVHAANHSKLQNIQMVVMKNEDRPLPVLLLREGQILKTSLTPSRNWNGRGLLGCRIQEL |
| 8.5 µM | 0.39 s⁻¹ | Nas2LND (domain or fragment) GPLTRRASVGSQAIQYTIPFAFISEVVPGSPSDKADIKVDDKLISIGNVHAANHSKLQNIQMVVMKNEDRPLPVLLLREGQILKTSLTPSRNWNGRGLLGCRIQEL |
